Measurements as given in US12466853B2, “Selective targeting of apoptosis proteins by structurally-stabilized and/or cysteine-reactive NOXA peptides” (priority 2017, dated 2025).
Changes are numbered by the printed parent chain. Entries after “also recorded” stand apart in the source; their conditions may differ. Positions of bridges follow the written chain, without caps; N, C: chain ends. Non-standard residues stand in square brackets, D forms with d. No end group written: not given here. R8 = C=CCCCCCC[C@@](C)(N)C(=O)O; S5 = C=CCCC[C@](C)(N)C(=O)O

What was measured:
[1] = molecular target: T1, His-BFL-1ΔC C4S/C19S (Homo sapiens, UniProt Q16548, C19S/C4S); experiment: In vitro covalent conjugation assay (gel shift, Coomassie; intact mass spectrometry); type: binding
T1 construct: Recombinant anti-apoptotic BFL-1ΔC (aa 1-151) and its cysteine to serine mutants were cloned into PET17b; made in house; host or cells: Escherichia coli LOBSTR BL21(DE3)
T1 sequence (Q16548 1-151 C4S/C19S): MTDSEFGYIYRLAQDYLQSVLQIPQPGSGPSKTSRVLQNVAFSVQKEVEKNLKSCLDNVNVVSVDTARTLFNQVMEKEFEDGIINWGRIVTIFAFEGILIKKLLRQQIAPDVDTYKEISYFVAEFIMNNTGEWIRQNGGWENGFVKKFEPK
Description: To generate constructs with particular binding selectivities, cell penetrance properties, in vivo stability, and biological activity to enable the development of a drug for clinical use, staple scanning methodology was first used to generate a library of cysteine-reactive NOXA SAHBs to optimize binding potency, selectivity, and cellular penetrance. […] Staple scanning was achieved by sequential placement of (i, i+4) and (i, i+7) staples across the length of the peptide template, while keeping the N-terminal D-nipecotic acid (D-NA) reactive group constant (FIG. 2). We measured the reactivity of this NOXA library by incubating each peptide with BFL-1ΔC and detecting a higher molecular weight conjugate upon reducing and denaturing gel electrophoresis, and Coomassie staining (FIG. 3). Those peptides capable of covalent reaction with BFL-1 were advanced to cellular testing for peptide uptake. 293T cells transfected with HA-BFL-1ΔC C4S/C19S were treated with peptide (20 μM, 6 hr), and then harvested and lysates analyzed by anti-HA western blotting (FIG. 4). […] However, upon LDH release testing in A375P cells, this peptide was unexpectedly found to cause membrane disruption (FIG. 5). […]

[2] = molecular target: T2, native BFL-1 (Homo sapiens, UniProt Q16548); experiment: BFL-1 targeting in A375P lysates (streptavidin pulldown, BFL-1 western); type: binding; conditions: biotinylated SAHB, compared to acetylated construct
T2 construct: endogenous in cells; host or cells: A375P melanoma cells (A10); U937 AML cells (A12), lysates
T2 sequence (Q16548 1-175): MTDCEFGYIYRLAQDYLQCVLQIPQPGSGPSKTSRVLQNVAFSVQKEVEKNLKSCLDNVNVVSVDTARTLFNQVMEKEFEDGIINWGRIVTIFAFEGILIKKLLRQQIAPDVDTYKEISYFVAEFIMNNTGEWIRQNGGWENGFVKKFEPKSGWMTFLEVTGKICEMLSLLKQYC
Method: Cultured A375P and U937 cells were trypsinized or harvested, respectively, washed with PBS, and lysed by incubating with 1% CHAPS lysis buffer (1% CHAPS, 150 mM NaCl, 50 mM Tris pH 7.4, 100 μM DTT). The protein concentrations of the soluble fraction were measured using a BCA kit according to the manufacturer's instructions (Thermo Scientific). Lysate samples (1 mg) were incubated with vehicle or C-terminally biotinylated NOXA SAHBs (30 μM) overnight in 1% CHAPS lysis buffer at 4° C. Biotin capture was accomplished by incubating the mixture with high-capacity SA agarose (Thermo Scientific) for 2 hours at 4° C., followed by centrifugation and washing the pelleted beads three times with lysis buffer (1 mL). Bead-bound proteins were eluted by boiling in 10% SDS containing 10 mg/mL biotin for 10 minutes and then subjected to electrophoresis and western blotting using BFL-1 (Abcam, #125259) and MCL-1 (Rockland #600-401-394S) antibodies.

[3] = molecular target: T3, His-BFL-1ΔC (Homo sapiens, UniProt Q16548); experiment: Streptavidin pulldown from recombinant protein mixture, BFL-1; type: binding; conditions: equimolar mixture of recombinant MCL-1, BCL-XL, BFL-1 and biotinylated SAHB, silver stain; listed as D-NA-NOXA SAHB
T3 construct: Recombinant anti-apoptotic BFL-1ΔC (aa 1-151) and its cysteine to serine mutants were cloned into PET17b; made in house; host or cells: Escherichia coli LOBSTR BL21(DE3)
T3 sequence (Q16548 1-151): T1 sequence (Q16548 1-151 C4S/C19S) with S4C, S19C
Method: (§1) WT His-BFL-1ΔC, BCL-XLΔC (tagless), and GST-MCL-1ΔNΔC (1 μM each) were combined and incubated with 3 mM DTT in PBS for thirty minutes at room temperature. Mixtures were treated with vehicle or the indicated C-terminally biotinylated NOXA SAHB (1 μM) for four hours and were then added to 30 μL PBS-washed high-capacity streptavidin (SA) agarose beads (Thermo Fisher Pierce) and incubated with rotation at room temperature for two hours. The beads were then washed three times with NP-40 lysis buffer (1% NP-40, 50 mM Tris pH 8, 100 mM NaCl, 2.5 mM MgCl2) and three times with PBS. To elute bound protein, beads were boiled for ten minutes with 10% SDS containing 10 mg/mL biotin. After elution, samples were boiled with 3×LDS and 2M DTT for twenty minutes. Gel electrophoresis using a 12% Bis-Tris gel was conducted on inputs (2%) and eluates (5 μL) and gels were developed using the Pierce silver staining kit (Thermo Fisher).

[4] = molecular target: T4, GST-MCL-1ΔNΔC (Homo sapiens, UniProt Q07820); experiment: Streptavidin pulldown from recombinant protein mixture, MCL-1; type: binding; conditions: equimolar mixture of recombinant MCL-1, BCL-XL, BFL-1 and biotinylated SAHB, silver stain
T4 construct: BCL-XLΔC (aa 1-212) and MCL-1ΔNΔC (aa 172-329) were cloned into the PGEX-4T-1; made in house; host or cells: Escherichia coli BL21(DE3)
T4 sequence (Q07820 172-329, stated change not applied): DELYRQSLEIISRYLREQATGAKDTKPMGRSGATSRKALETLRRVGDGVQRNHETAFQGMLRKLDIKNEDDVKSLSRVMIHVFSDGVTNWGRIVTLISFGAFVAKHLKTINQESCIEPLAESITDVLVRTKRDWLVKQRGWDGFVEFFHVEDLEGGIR
Method: as §1

[5] = test system: A375P cells; experiment: LDH release assay, A375P cells; type: cell-based, human; conditions: 30 min
Method: After overnight incubation for A375P cells, or immediately upon plating for U937 cells, the cells were treated with the indicated concentrations of D-NA-NOXA SAHBs in DMEM or RPMI supplemented with 5% FBS for the indicated time period (30 min, 4 h). After plate centrifugation at 1,500 rpm (Thermo Scientific Sorvall Four-Place Swinging Bucket Rotor [75006445]; 478×g) for 5 min at 4° C., LDH release was quantified by transferring 100 μL of cell-culture medium to a clear plate (Corning), incubating with 100 μL of LDH reagent (Roche) for 30 min while shaking, and then measuring absorbance at 490 nm on a microplate reader (Spectramax M5, Molecular Devices).

## *AT8LRRFGDXLNFRQ (AT[R8]LRRFGD[S5]LNFRQ; staple 3-10 (inferred); not fully specified (N-terminus); printed as *AT8LRRFGDXLNFRQ; also: N-terminal cap * is Ac or D-nipecotic acid, not settled) [NOXA-15]
[1]; BFL-1 constructs bearing C55 (wild-type and C4S/C19S) vs C55S, C4S/C19S/C55S
  BFL-1 crosslinking (increase in molecular weight): discrete increase in molecular weight
[1]; intact mass spectrometry
  conversion of BFL-1 C4S/C19S to peptide adduct: complete conversion
[2]
  targeting of native BFL-1: markedly enhanced BFL-1 pull down compared to Ac-NOXA SAHB
[3]
  BFL-1 binding / pull down: robust BFL-1 pull down; also recorded: substantial pull-down of BFL-1
[4]
  MCL-1 binding / pull down: similarly small amount of MCL-1
[5]
  LDH release (lytic activity): non-specific cell lysis
